# Measurements reported in patent US20110086767A1, “MUTANTS OF GLYCOSIDE HYDROLASES AND USES THEREOF FOR SYNTHESIZING COMPLEX OLIGOSACCHARIDES AND DISACCHARIDE INTERMEDIATES” (Institut Pasteur, priority 2008, published 2011).
# Positions count from the first letter of the chain named. Numbers in names are those of the source. Like-named read-outs stand apart in the source and are kept apart here.
# B1: wtAS: Wild type glycoside hydrolase: amylosucrase 1G5A from Neisseria polysaccharea, SEQ ID NO: 13 (protein, listed as Neisseria polysaccharea)
# chain: SPNSQYLKTRILDIYTPEQRAGIEKSEDWRQFSRRMDTHFPKLMNELDSVYGNNEALLPMLEMLLAQAWQSYSQRNSSLKDIDIARENNPDWILSNKQVGGVCYVDLFAGDLKGLKDKIPYFQELGLTYLHLMPLFKCPEGKSDGGYAVSSYRDVNPALGTIGDLREVIAALHEAGISAVVDFIFNHTSNEHEWAQRCAAGDPLFDNFYYIFPDRRMPDQYDRTLREIFPDQHPGGFSQLEDGRWVWTTFNSFQWDLNYSNPWVFRAMAGEMLFLANLGVDILRMDAVAFIWKQMGTSCENLPQAHALIRAFNAVMRIAAPAVFFKSEAIVHPDQVVQYIGQDECQIGYNPLQMALLWNTLATREVNLLHQALTYRHNLPEHTAWVNYVRSHDDIGWTFADEDAAYLGISGYDHRQFLNRFFVNRFDGSFARGVPFQYNPSTGDCRVSGTAAALVGLAQDDPHAVDRIKLLYSIALSTGGLPLIYLGDEVGTLNDDDWSQDSNKSDDSRWAHRPRYNEALYAQRNDPSTAAGQIYQDLRHMIAVRQSNPRFDGGRLVTFNTNNKHIIGYIRNNALLAFGNFSEYPQTVTAHTLQAMPFKAHDLIGGKTVSLNQDLTLQPYQVMWLEIA
# B2: F290I: single mutant F290I of N. polysaccharea amylosucrase (protein)
# chain: B1 chain with F290I
# B3: I228V-F290R: double mutant I228V, F290R of N. polysaccharea amylosucrase (protein)
# chain: B1 chain with I228V, F290R
# B4: A289P-F290C: double mutant A289P, F290C of N. polysaccharea amylosucrase (protein)
# chain: B1 chain with A289P, F290C
# B5: I228P-F290C: double mutant I228P, F290C of N. polysaccharea amylosucrase (protein)
# chain: B1 chain with I228P, F290C
# B6: A289P-F290I: double mutant A289P, F290I of N. polysaccharea amylosucrase (protein)
# chain: B1 chain with A289P, F290I
# B7: A289P-F290L: double mutant A289P, F290L of N. polysaccharea amylosucrase (protein)
# chain: B1 chain with A289P, F290L
# B8: F290D: single mutant F290D of N. polysaccharea amylosucrase 1G5A (protein)
# chain: B1 chain with F290D
# Tests used:
# [1] = tested on: Neisseria polysaccharea amylosucrase 1G5A (parent SEQ ID NO: 13) variants A289P-F290C, A289P-F290I and A289P-F290L; test: Kinetic parameters towards α-D-GlcpNAc-OAll acceptor, the three double mutants stated together; assay type: biochemical; conditions: sucrose 250 mM
# Description: The double mutants A289P-F290C, A289P-F290I and A289P-F290L were produced and purified, as previously described in Example 1-1. The protein content was determined by the Nanodrop ND-1000 spectrophotometer. These mutants were tested on sucrose alone or supplemented with α-D-GlcpNAc-OAll acceptor, and compared to wtAS and F290K. Assays were performed at 30° C. in 50 mM Tris-HCl buffer, pH=7.0.
# (§1) Enzyme assays were carried out in a total volume of 2 mL containing pure enzyme (0.037 mg, 0.076 mg and 0.046 mg when using A289P-F290C, A289P-F2901 and A289P-F290L, respectively).
# (§2) The kcat/Km (α-D-GlcpNAc-OAll) value was calculated from the initial rate of formation of desired disaccharide (α-D-Glcp-(1→4)-α-D-GlcpNAc-OAll), corresponding to the initial rate of α-D-GlcpNAc-OAll consumed. As saturation was not achieved with the mutants, efficiency was calculated by linear regression analysis of the velocity versus substrate concentration plot.
# [2] = data from ref. 83, cited from earlier work
# [3] = HPLC screening of the single-mutant amylosucrase library for glucosylation of D-GlcpNAc; assay type: biochemical
# Description: The protocol was established to enable the rapid identification of clones for which D-GlcpNAc glucosylation was improved. To obtain higher amounts of enzymes and facilitate detection of glucosylated compounds upon HPLC screening, mutants were produced in 96-DeepWell Format plates. Storage microplates containing monomutants were thawed and replicated to inoculate a starter culture in 96-well microplates containing, in each well, 150 μL LB medium supplemented with ampicillin (100 μg/mL). After growth for 24 h at 30° C. under agitation (200 rpm), plates were duplicated into 96-Deep Well plates containing, in each well, 1.1 mL LB medium supplemented with ampicillin (100 μg/mL) and IPTG (1 mM) to induce GST-AS expression. Cultures were then grown for 24 h at 30° C. under agitation (200 rpm). Plates were centrifuged (20 min, 3000 g, 4° C.) and the supernatant was removed. The cell pellet was resuspended in 200 μL of lysozyme (0.5 mg/mL), followed by freezing at −80° C. for 8 to 12 h. After thawing at room temperature, 100 μL of sucrose and 100 μL of acceptor (each at a final concentration of 73 mM) were added to each well. Enzymatic reaction was incubated at 30° C. during 24 h under agitation. The DeepWell plates were then centrifuged (20 min, 3000 g, 4° C.) and 300 μL of the supernatant was transferred to a filter micro-plate (PVDF 0.2 μm) to be clarified. […]
# Efficiency of the glucosylation reaction was evaluated by HPLC analysis of the acceptor reaction product synthesized when using D-GlcpNAc as acceptor using a Dionex P 680 series pump, a Shodex RI 101 series refractometer, a Dionex UVD 340 UV/Vis detector and an autosampler HTC PAL. […]
# For each of the 7 selected positions, 19 single mutants were generated (corresponding to each possible amino acid change). […] Both sucrose consumption and disaccharide formation were determined in order to calculate the glucosylation rate defined as the molar ratio of monoglucosylated acceptor versus/sucrose consumed.
# [4] = HPLC screening of double-mutant libraries for variants able to glucosylate D-GlcpNAc; assay type: biochemical; conditions: α-D-Glcp-(1→4)-α-D-GlcpNAc (ED) from sucrose and D-GlcpNAc, microplate format
# Description: The protocol was established to enable the rapid identification of clones for which D-GlcpNAc glucosylation was improved. To obtain higher amounts of enzymes and facilitate detection of glucosylated compounds upon HPLC screening, mutants were produced in 96-DeepWell Format plates. Storage microplates containing monomutants were thawed and replicated to inoculate a starter culture in 96-well microplates containing, in each well, 150 μL LB medium supplemented with ampicillin (100 μg/mL). After growth for 24 h at 30° C. under agitation (200 rpm), plates were duplicated into 96-Deep Well plates containing, in each well, 1.1 mL LB medium supplemented with ampicillin (100 μg/mL) and IPTG (1 mM) to induce GST-AS expression. Cultures were then grown for 24 h at 30° C. under agitation (200 rpm). Plates were centrifuged (20 min, 3000 g, 4° C.) and the supernatant was removed. The cell pellet was resuspended in 200 μL of lysozyme (0.5 mg/mL), followed by freezing at −80° C. for 8 to 12 h. After thawing at room temperature, 100 μL of sucrose and 100 μL of acceptor (each at a final concentration of 73 mM) were added to each well. Enzymatic reaction was incubated at 30° C. during 24 h under agitation. The DeepWell plates were then centrifuged (20 min, 3000 g, 4° C.) and 300 μL of the supernatant was transferred to a filter micro-plate (PVDF 0.2 μm) to be clarified. Supernatant filtration was carried out by centrifugation of the filter micro-plate (5 min, 2000 g, 4° C.) into a novel microplate for screening.
# The method for the expression of the mutant libraries is described in Example 1-1.
# Acceptor reaction products were analyzed by HPLC analysis using a C18-AQ column (Bischoff C18, 125×4 mm, 3 μm) kept at room temperature and eluted with 0.6 mL/min of ultra-pure water to detect α-D-Glcp-(1→4)-α-D-GlcpNAc formation (analysis time: 7 min). To evaluate the efficiency of the glucosylation reaction, it was carried out complementary HPLC analyses with a Biorad HPX-87K Carbohydrate Analysis column (maintained at 65° C., and eluted at a flow rate of 0.6 mL/min with ultra-pure water). By this way, it was possible to measure sucrose consumption by RI detection and concomitant α-D-Glcp-(1-4)-α-D-GlcpNAc formation by UV220 nm and determine mutant ability to synthesize the desired disaccharide α-D-Glcp-(1→4)-α-D-GlcpNAc (i.e., % Glucosyl units transferred onto acceptor derivatives=[Glucosyl units transferred onto acceptor derivatives]/[Glucosyl units transferred from initial sucrose]×100)
# All clones producing sucrose-utilizing variants were then picked and cultured in 96-well microplates. Following cell lysis, the acceptor reaction in the presence of D-GlcpNAc was then carried out in microplate format. HLPC analysis time for each clone was reduced to 7 min for detection of α-D-Glcp-(1→4)-α-D-GlcpNAc. When disaccharide formation was detected, complementary analyses were performed to determine sucrose consumption and disaccharide formation with more accuracy in order to calculate the glucosylation yield.
# [5] = Kinetic parameters towards α-D-GlcpNAc-OAll acceptor; assay type: biochemical; conditions: 250 mM for both sucrose and α-D-GlcpNAc-OAll
# Description: as §1, §2
# [6] = Kinetic parameters towards sucrose donor; assay type: biochemical; conditions: for V250mM (initial rate of sucrose consumption): 250 mM sucrose; for behaviour (at high concentration): sucrose donor alone
# Description: Enzyme assays were carried out in a total volume of 2 mL containing pure enzyme (0.073 mg, 0.153 mg and 0.092 mg when using A289P-F290C, A289P-F2901 and A289P-F290L, respectively).
# Kinetic studies of AS variants were performed in the presence of sucrose (0-500 mM). At regular time intervals (2-5 min), aliquots (200 μL) were removed, heated (95° C., 2 min) and centrifuged (18000 g, 5 min) All the samples were filtered on a 0.22 μm membrane and analyzed using HPLC material previously described. The initial rate of sucrose consumed, corresponding to the initial rate of fructose released, was expressed in mole of fructose released per minute and per gram of enzyme. The kinetic parameters kcat and Km were calculated using Eadie-Hofstee plot.
# [7] = Glucosylation of α-D-GlcpNAc-OAll by purified F290D, F290K and ASNPwt (146 mM sucrose + 146 mM acceptor); assay type: biochemical; conditions: purified enzyme; Sucrose=Acceptor=146 mM; compared with ASNPwt
# Description: All assays were performed at 30° C. in 50 mM Tris buffer, pH=7.0. For the acceptor reactions, F290D, F290K and ASNPwt (1G5A) were tested on α-D-GlcpNAc-OAll.
# Comparison of products synthesized by wild-type and AS variants. Reactions were performed in the presence of 146 mM sucrose alone or supplemented with 146 mM acceptor. The purified wild-type or mutated GST/AS were employed at 0.5 U/mL. The reactions were stopped by heating at 95° C. for 5 min. The final mixture was centrifuged at 18 000 g for 10 min, filtered on 0.22 μm membrane and analyzed by HPLC, as previously described.
# Soluble and insoluble oligosaccharides produced during the reaction were identified by HPAEC using a Dionex Carbo-Pack PA100 column at 30° C. Before analysis, the insoluble fraction was solubilized in KOH at a final total sugar concentration of 10 g/kg. Mobile phase (150 mM NaOH) was set at 1 mL/min flow rate with a sodium acetate gradient (going from 6 to 500 mM within 120 min). Detection was performed using a Dionex ED40 module with a gold working electrode and an Ag/AgCl pH reference. Note that α-D-GlcpNAc-OAll (acceptor) and its derivatives are not oxidable products and thus are not detectable by HPAEC. Sucrose, glucose, fructose, α-D-GlcpNAc-OAll (acceptor) and its derivatives (glucosylation products) were quantified by HPLC, as previously described
Molecule,Glusosylation Yield to synthesize ED [4],V250mM (initial rate of acceptor consumption) [5],V250mM (initial rate of sucrose consumption) [6],behaviour (at high concentration) [6],further results
"C=CCO[C@H]1O[C@H](CO)[C@@H](O)[C@H](O)[C@H]1NC(C)=O [α-D-GlcpNAc-OAll, allyl 2-acetamido-2-deoxy-α-D-glucopyranoside]",–,–,–,–,increase of catalytic efficiency towards α-D-GlcpNAc-OAll compared to variant F290K ([1]; three double mutants vs F290K): 3 fold; increase of catalytic efficiency towards α-D-GlcpNAc-OAll compared to wtAS ([1]; three double mutants vs wtAS): ≤ 395 fold
B1,2%,290 µmol/min/g,–,–,"V250mM (initial rate of sucrose consumption) ([2]; 250 mM sucrose): 900 µmol/min/g; behaviour (at high concentration) ([2]; sucrose donor): saturation; glucosylation rate (formation of α-D-Glcp-(1→4)-D-GlcpNAc) ([3]; molar ratio of monoglucosylated acceptor versus sucrose consumed, sucrose and D-GlcpNAc 73 mM each, 30° C., 24 h, microtiter format): 2%"
B2,16%,–,–,–,–
B3,25%,–,–,–,–
B4,100%,50 000 μmol/min/g,2186 µmol/min/g,saturation,–
B5,22%,–,–,–,–
B6,100%,51 400 μmol/min/g,946 µmol/min/g,saturation,–
B7,100%,67 300 μmol/min/g,1717 µmol/min/g,saturation,–
B8,–,–,–,–,increase of glucosylation rate compared to the wild type ([3]; acceptor D-GlcpNAc): 45 fold; times more efficient for α-D-GlcpNAc-OAll glucosylation [7]: 10 times; times more efficient to form α-D-Glcp-(1→4)-D-GlcpNAc-OAll [7]: 20 times
